Data on one sequence can be found in patent publication US11376333B2, “mTG substrates for covalent conjugation of compounds” (COVALAB, priority 2013, dated 2022).

Test [1] deals with T1, human transglutaminase 2 (hTG2) (Homo sapiens, UniProt P21980).
T1 construct: purchased Covalab, France opr 0027
T1 sequence (P21980 1-687): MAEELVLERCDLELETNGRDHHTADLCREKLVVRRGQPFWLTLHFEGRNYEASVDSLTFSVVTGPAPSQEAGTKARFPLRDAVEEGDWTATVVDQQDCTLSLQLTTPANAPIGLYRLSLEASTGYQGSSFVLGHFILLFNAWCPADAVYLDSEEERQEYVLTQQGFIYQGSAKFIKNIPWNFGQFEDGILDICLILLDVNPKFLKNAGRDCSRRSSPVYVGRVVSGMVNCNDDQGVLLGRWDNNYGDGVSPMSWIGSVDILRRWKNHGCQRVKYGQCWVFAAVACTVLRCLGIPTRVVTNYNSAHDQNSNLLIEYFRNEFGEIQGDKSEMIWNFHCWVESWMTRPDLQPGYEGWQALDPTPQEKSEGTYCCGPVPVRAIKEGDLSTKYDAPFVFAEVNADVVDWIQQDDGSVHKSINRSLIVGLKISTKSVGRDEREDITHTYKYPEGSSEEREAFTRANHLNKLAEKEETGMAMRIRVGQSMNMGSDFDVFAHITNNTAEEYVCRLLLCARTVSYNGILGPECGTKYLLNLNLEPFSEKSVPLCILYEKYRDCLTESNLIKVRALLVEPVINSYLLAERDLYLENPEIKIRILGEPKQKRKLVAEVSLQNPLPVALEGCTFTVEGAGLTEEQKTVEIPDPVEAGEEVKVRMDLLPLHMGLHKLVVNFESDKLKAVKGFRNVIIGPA
The test is described as follows: TG2-mediated incorporation of biotin-cadaverine into peptides coupled on Covabtest plate. The format is biochemical. The settings on record: same conditions as for mTG. The protocol: The coupling method was previously described by the Applicant (V. Thomas et al, 2004) and also in the corresponding data sheet of CovAbtest-Plate™ which is commercially available from Covalab (Ref #opr0004). Briefly, in separate tubes a solution mixture containing 150 μM of each peptide dissolved in 10 mM phosphate buffer pH5, 5 mM EDAC and 5 mM NHS was incubated for 30 min under gentle shaking. The resulting activated NHS-carboxyl C-terminal moiety of each peptide (15 nmoles) was used to be conjugated in each well of CovAbtest-Plate™ previously deprotonated during 15 min with 150 μl 0.6% sodium bicarbonate per well. The microtiter plate was then incubated during 2 hrs at room temperature and washed extensively with Tris Buffer Saline.
For this experiment we used the same procedures described by V Thomas et all (2004) and also in the Covalab's commercialized kit (opr0033). Briefly the Lyophilized transglutaminase was reconstituted in 40 mM tris buffer pH 8 and 50 μl of each mTG at 200 ng/ml and at 40 ng/ml were added in the wells containing 50 μl of biotin-X-cadaverine. The enzymatic mixture was incubated for 15 min at room temperature under gentle shaking. […] Absorbances at 450 nm were measured using a microplate reader (Multiskan, Labsystems, Helsinki, Finland). […]

Test [2] has as its target T2, microbial transglutaminase (mTG) (Streptomyces mobaraensis, UniProt P81453).
T2 construct: purchased Covalab, France opr 0054
T2 sequence (P81453 77-407): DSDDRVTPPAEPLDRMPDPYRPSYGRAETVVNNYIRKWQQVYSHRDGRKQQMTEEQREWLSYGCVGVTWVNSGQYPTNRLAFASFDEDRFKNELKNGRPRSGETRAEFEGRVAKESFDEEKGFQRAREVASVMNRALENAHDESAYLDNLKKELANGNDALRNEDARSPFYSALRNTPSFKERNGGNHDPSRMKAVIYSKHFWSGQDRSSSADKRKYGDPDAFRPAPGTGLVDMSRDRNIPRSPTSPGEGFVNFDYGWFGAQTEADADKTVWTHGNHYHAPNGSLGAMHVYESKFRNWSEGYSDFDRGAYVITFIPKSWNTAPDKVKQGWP
The test is described as follows: mTG incorporation of biot-cad into coated BSA-peptide conjugate, with free-peptide competition. Type of test: biochemical. The settings on record: 150 μM free peptide, mTG 100 ng/ml. The method, then: 2 mg of each peptide was dissolved in 1 ml of deionized water and 150 nmoles were mixed with 0.5 mg BSA solubilized in 50 mM bicarbonate buffer pH9.5. After shaking, glutaraldehyde was added at a final concentration of 0.25% (v/v). The mixtures were kept at room temperature during 16 hrs under gentle shaking. At the end of this incubation time, sodium borohydride was added at a final concentration of 10 mg/ml to stabilize the cross-linking between BSA and the peptides. After 2 hours each mixture of peptide-BSA was dialyzed separately in PBS to remove any free peptides.
High binding 96 wells-microtiter plates (Costar) were used to immobilize BSA-peptide and to human IgG-peptide conjugates prepared as described in M-4 and M-5. For these experiments, conjugates were prepared at 50 μg/ml in 50 mM sodium carbonate buffer pH 9 and 100 μl of each solution was dispensed in the number of wells needed for the experiment. After overnight incubation at 4° C., the plates were washed extensively with Tris Buffer Saline (TBS) and were ready to be used for TG activity.
The same procedure was used as described in B-II-1
In the literature its well known that many proteins are not substrate of transglutaminase even if many glutamine residues are present in their structures (Gorman J J, Folk J E. J Biol Chem. 1984 Jul. 25; 259(14):9007-10). […]

In the case of HDLMWPDVYSQH (Peptide HH12Q11), the “reactivity as substrate for TG2 incorporation of biot-cad” value in test [1] was “less reactivity with TG2 than mTG”. The “effect of added free peptide on mTG reactivity on BSA-HH12Q11” value in test [2] is given as “decreased”.
